Patent US20150166647A1 (VLST, published 2015)

T1: mouse MIP-1α/CCL3 (mouse, UniProt P10855 24-92)
T1 construct: also called muMIP-1α
T1 sequence: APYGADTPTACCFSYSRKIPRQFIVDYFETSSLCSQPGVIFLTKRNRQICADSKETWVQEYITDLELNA

T2: mouse MIP-1β/CCL4 (mouse, UniProt P14097 24-92)
T2 construct: also called muMIP-1β
T2 sequence: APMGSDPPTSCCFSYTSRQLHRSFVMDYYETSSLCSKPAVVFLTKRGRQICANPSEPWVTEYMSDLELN

T3: XCL1
T3 chemokine: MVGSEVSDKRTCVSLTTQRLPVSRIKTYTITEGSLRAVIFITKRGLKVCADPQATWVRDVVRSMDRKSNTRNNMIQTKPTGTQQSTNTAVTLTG

T4: BCA1
T4 construct: also called BCA-1/BLC/CXCL13; CXCL13
T4 chemokine: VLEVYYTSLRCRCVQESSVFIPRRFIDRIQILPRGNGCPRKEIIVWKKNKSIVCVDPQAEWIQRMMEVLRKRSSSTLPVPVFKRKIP

T5: I-TAC
T5 construct: also called I-TAC/CXCL11; CXCL11
T5 chemokine: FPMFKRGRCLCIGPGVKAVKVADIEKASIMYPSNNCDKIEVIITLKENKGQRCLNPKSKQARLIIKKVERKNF

T6: BRAK
T6 construct: also called BRAK/CXCL14; CXCL14
T6 chemokine: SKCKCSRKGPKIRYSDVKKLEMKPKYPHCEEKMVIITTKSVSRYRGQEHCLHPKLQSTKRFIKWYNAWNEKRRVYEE

T7: CTACK
T7 construct: also called CTACK/CCL27; CCL27
T7 chemokine: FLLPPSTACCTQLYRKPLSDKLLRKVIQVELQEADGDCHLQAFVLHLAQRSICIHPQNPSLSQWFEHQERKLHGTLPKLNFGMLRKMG

T8: PF4
T8 construct: also called PF4/CXCL4; CXCL4
T8 chemokine: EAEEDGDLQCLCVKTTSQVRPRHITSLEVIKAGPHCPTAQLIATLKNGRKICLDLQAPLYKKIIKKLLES

T9: NAP-2
T9 construct: also called NAP-2/CXCL7; CXCL7
T9 chemokine: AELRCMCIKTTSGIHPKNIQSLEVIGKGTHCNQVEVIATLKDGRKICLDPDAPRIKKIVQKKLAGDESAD

T10: human MIP-1β/CCL4 (human, UniProt Q8NHW4 24-92)
T10 construct: also called Biotin-MIP-1β
T10 chain: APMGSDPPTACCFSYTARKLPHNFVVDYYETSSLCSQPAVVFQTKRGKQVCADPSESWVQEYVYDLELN

T11: human RANTES/CCL5 (human, UniProt P13501 24-91)
T11 construct: also called Biotin-RANTES
T11 sequence: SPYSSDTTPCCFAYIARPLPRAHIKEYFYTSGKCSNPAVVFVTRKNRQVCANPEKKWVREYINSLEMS


Legend:
[1] = target: T1, mouse MIP-1α/CCL3; experiment: MSD electrochemiluminescence, chemokine coated at 1 µg/mL
[2] = target: T2, mouse MIP-1β/CCL4; experiment: as above
[3] = target: T12, mouse RANTES/CCL5 (mouse, UniProt P30882 24-91); experiment: as above
T12 construct: also called muRANTES
T12 sequence (P30882 24-91 limits assumed): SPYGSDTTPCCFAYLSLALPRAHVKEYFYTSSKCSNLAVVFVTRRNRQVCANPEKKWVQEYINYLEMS

[4] = target: T3, XCL1; experiment: MSD electrochemiluminescence assay; chemokine coated at 1 µg/mL, 18V4F at 3 µg/mL; background = BSA
[5] = target: T4, BCA1; experiment: as above
[6] = target: T13, GCP2; experiment: as above
T13 construct: also called GCP-2/CXCL6; CXCL6
T13 sequence (chemokine, as listed by the source): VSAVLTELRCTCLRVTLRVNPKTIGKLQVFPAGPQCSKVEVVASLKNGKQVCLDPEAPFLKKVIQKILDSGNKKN

[7] = target: T14, ENA-78; experiment: as above
T14 construct: also called ENA-78/CXCL5; CXCL5
T14 sequence (chemokine, as listed by the source): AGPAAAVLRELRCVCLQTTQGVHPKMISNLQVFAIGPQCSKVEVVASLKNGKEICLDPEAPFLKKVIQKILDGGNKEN

[8] = target: T5, I-TAC; experiment: as above
[9] = target: T15, Groβ; experiment: as above
T15 construct: also called Gro-β/CXCL2; CXCL2
T15 sequence (chemokine, as listed by the source): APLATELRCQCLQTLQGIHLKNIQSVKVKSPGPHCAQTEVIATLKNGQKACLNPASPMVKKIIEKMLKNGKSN

[10] = target: T16, Groα; experiment: as above
T16 construct: also called Gro-α/CXCL1; CXCL1
T16 sequence (chemokine, as listed by the source): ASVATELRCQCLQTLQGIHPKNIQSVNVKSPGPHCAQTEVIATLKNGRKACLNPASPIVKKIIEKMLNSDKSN

[11] = target: T6, BRAK; experiment: as above
[12] = target: T17, Groγ; experiment: as above
T17 construct: also called Gro-γ/CXCL3; CXCL3
T17 sequence (chemokine, as listed by the source): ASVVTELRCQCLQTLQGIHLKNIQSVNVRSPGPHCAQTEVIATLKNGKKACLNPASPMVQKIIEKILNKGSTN

[13] = target: T18, IL-8; experiment: as above
T18 construct: also called IL-8/CXCL8; CXCL8
T18 sequence (chemokine, as listed by the source): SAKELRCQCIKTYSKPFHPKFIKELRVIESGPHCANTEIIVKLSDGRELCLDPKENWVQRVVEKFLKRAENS

[14] = target: T19, SDF; experiment: as above
T19 construct: also called SDF-1/CXCL12; CXCL12
T19 sequence (chemokine, as listed by the source): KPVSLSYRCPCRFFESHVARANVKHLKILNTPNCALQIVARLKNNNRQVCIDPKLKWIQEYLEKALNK

[15] = target: T7, CTACK; experiment: as above
[16] = target: T8, PF4; experiment: as above
[17] = target: T9, NAP-2; experiment: as above
[18] = target: T10, human MIP-1β/CCL4; experiment: ELISA, hybridoma fusion-well supernatant on biotinylated chemokine on streptavidin plate; background approx. 0.150
[19] = target: T20, human MCP-1/CCL2 (human, UniProt P13500 24-99); experiment: as above
T20 construct: also called Biotin-MCP1
T20 sequence (P13500 24-99 limits assumed): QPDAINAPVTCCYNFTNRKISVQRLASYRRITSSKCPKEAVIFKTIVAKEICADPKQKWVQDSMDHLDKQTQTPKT

[20] = target: T11, human RANTES/CCL5; experiment: as above

binding result [1] | binding result [2] | binding result [3] | binding result [4] | binding result [5] | binding result [6] | binding result [7] | binding result [8] | binding result [9] | binding result [10] | binding result [11] | binding result [12] | binding result [13] | binding result [14] | binding result [15] | binding result [16] | binding result [17] | ELISA signal [18] | ELISA signal [19] | ELISA signal [20] | Binder
no binding (tested: 3 µg/mL) | no binding (tested: 3 µg/mL) | no binding (tested: 3 µg/mL) | no binding (tested: 3 µg/mL) | no binding (tested: 3 µg/mL) | no binding (tested: 3 µg/mL) | no binding (tested: 3 µg/mL) | no binding (tested: 3 µg/mL) | no binding (tested: 3 µg/mL) | no binding (tested: 3 µg/mL) | no binding (tested: 3 µg/mL) | no binding (tested: 3 µg/mL) | no binding (tested: 3 µg/mL) | no binding (tested: 3 µg/mL) | no binding (tested: 3 µg/mL) | no binding (tested: 3 µg/mL) | no binding (tested: 3 µg/mL) |  |  |  | monoclonal antibody 18V4F (antibody, V domains shown, also called MAb 18V4F) VH: QVQLKESGPGLVAPSQSLSITCTVSGFSLTGYGIHWVRQPPGKGLEWLGVIWPGGGTNYNSALMSRLSISKDNSKSQVFLKMNSLQTDDTAMYYCARGPLITTEVSMDYWGQGTSVTVSS VL: QAVVTQESALTTSPGETVTLTCRSNTGAVTTSNYANWVQEKPDHLFTGLIGGTNNRAPGVPARFSGSLIGDKAALTITGAQTEDEAIYFCALWYSNHWVFGGGTKLTVLG
no binding (tested: 3 µg/mL) | no binding (tested: 3 µg/mL) | no binding (tested: 3 µg/mL) |  |  |  |  |  |  |  |  |  |  |  |  |  |  | 2.68 | 0.246 | 0.178 | monoclonal antibody 7D12A (antibody, V domains shown, also called MAb 7D12A) VH: EVHLQESGPSLVKPSQTLSLTCSVTGDSITNGYWNWIRKFPGNKLDYMGYISYDGNTYYNPSLKSRFSITRDTSKNQYYLQLNSVTTEDTATYYCSRGDYGTYVMDYWGQGTSVTVSS VL: NIVLTQSPVSLAVSLGQRATISCRASESVDSHGNSFMHWYQQKPGQPPKLLIYLASNLESGVPARFTGGGSGSDFTLTIDPVEADDVGTYYCQQNNEDPYTFGGGTKLEIK
